The values that follow come from patent US20110262479A1.

For test [1], the target named is TCRs of the MBP-69-89 specific short-term T cell line (Lewis rat) (rat). In words: cell-based or functional assay.
In test [2] the target is TCR of the rat Vβ8.2+ T cell hybridoma C14/BW12-12A1 (A1), specific for Gp-BP-72-89 (rat). In words: flow cytometry, direct binding study on A1 hybridoma. A general note: A flow cytometer gives signals particle by particle.
For test [3] the target is unchanged. The test is described as follows: flow cytometry, A1 hybridoma with 10 µM complex 17 h at 4 C, detected with OX6-PE.
The target of test [4] is TCR of the cardiac myosin CM-2-specific cell line (rat). The test is described as follows: flow cytometry, CM-2 line (blocked with unconjugated OX6) with 10 µM complex 17 h at 4 C, detected with OX6-PE.
Test [5] has as its target TCR of the rat Vβ8.2+ T cell hybridoma C14/BW12-12A1 (A1), specific for Gp-BP-72-89 (rat). In words: flow cytometry, directly labelled complex on A1 hybridomas, 3 h at 4 C.

B1: β1α1/MBP-69-89 complex (rat RT1.B β1α1 construct loaded with MBP-69-89 peptide) (peptide-MHC)
chain: MGRDSPRDFVYQFKGLCYYTNGTQRIRDVIRYIYNQEEYLRYDSDVGEYRALTELGRPSAEYFNKQYLEQTRAELDTVCRHNYEGSEVRTSLRRLGGQDDIEADHVAAYGINMYQYYESRGQFTHEFDGDEEFYVDLDKKETIWRIPEFGQLTSFDPQGGLQNIAIIKHNLEILMKRSNSTQAVN
peptide: GSLPQKSQRSQDENPVVHF
Turning to B1, the inhibition of proliferation of the T cell line to MBP-69-89 + APC after pre-treatment with 10 nM complex in test [1] is > 90%. This molecule also came in with a fold increase in MFI over background in test [2] of 10 fold. Also, the mean fluorescence intensity (MFI) in test [3] amounted to 800 Units.

B2: β1α1/MBP-55-69 complex (rat RT1.B β1α1 with Gp-MBP-55-69 peptide) (peptide-MHC)
chain: MGRDSPRDFVYQFKGLCYYTNGTQRIRDVIRYIYNQEEYLRYDSDVGEYRALTELGRPSAEYFNKQYLEQTRAELDTVCRHNYEGSEVRTSLRRLGGQDDIEADHVAAYGINMYQYYESRGQFTHEFDGDEEFYVDLDKKETIWRIPEFGQLTSFDPQGGLQNIAIIKHNLEILMKRSNSTQAVN
peptide: SGKDSHHAARTTHYG
In the case of B2, in test [1], the inhibition of proliferation of the T cell line to MBP-69-89 + APC after pre-incubation with 20 µM complex was determined as 27%.

B3: β1α1/CM-2 complex (rat RT1.B β1α1 construct loaded with cardiac myosin peptide CM-2) (peptide-MHC)
chain: MGRDSPRDFVYQFKGLCYYTNGTQRIRDVIRYIYNQEEYLRYDSDVGEYRALTELGRPSAEYFNKQYLEQTRAELDTVCRHNYEGSEVRTSLRRLGGQDDIEADHVAAYGINMYQYYESRGQFTHEFDGDEEFYVDLDKKETIWRIPEFGQLTSFDPQGGLQNIAIIKHNLEILMKRSNSTQAVN
peptide: KLELQSALEEAEASLEH
Regarding B3, in test [4], the mean fluorescence intensity (MFI) was 1800 Units.

B4: A488-β1α1/MBP-69-89 (Alexa-488 conjugated rat β1α1 loaded with MBP-69-89) (peptide-MHC)
chain: MGRDSPRDFVYQFKGLCYYTNGTQRIRDVIRYIYNQEEYLRYDSDVGEYRALTELGRPSAEYFNKQYLEQTRAELDTVCRHNYEGSEVRTSLRRLGGQDDIEADHVAAYGINMYQYYESRGQFTHEFDGDEEFYVDLDKKETIWRIPEFGQLTSFDPQGGLQNIAIIKHNLEILMKRSNSTQAVN
peptide: GSLPQKSQRSQDENPVVHF
modifications: Alexa-488 dye conjugated, molar ratio dye/protein=1; site not stated
Consider B4, for which, in test [5], the MCI was 300 Units.
